Experimental data taken from PMC13750308 (2026).

T1: Cep192 IDR+ASH8 (Homo sapiens, UniProt Q8TEP8)
T1 chain: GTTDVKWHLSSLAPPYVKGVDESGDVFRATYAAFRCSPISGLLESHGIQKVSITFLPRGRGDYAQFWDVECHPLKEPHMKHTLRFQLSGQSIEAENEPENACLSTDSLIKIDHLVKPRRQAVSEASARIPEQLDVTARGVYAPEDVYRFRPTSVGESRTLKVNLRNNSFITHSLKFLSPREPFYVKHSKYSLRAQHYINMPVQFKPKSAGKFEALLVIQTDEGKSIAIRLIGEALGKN


Assays:
[1] = molecular target: Centrobin peptide motif (Homo sapiens) (UniProt Q8N137); details: cited from earlier work
Cep192 IDR+ASH8 = molecular target: T1, Cep192 IDR+ASH8; assay: GFP-Trap bead supernatant depletion pull-down with western blot

Row | Kd (Cep192 IDR+ASH8) | Molecule | Kd [1]
1 |  | TRIM37 MATH (from UniProt O94972) | 14 µM
2 | 0.075 µM | TRIM37 (protein) MDEQSVESIAEVFRCFICMEKLRDARLCPHCSKLCCFSCIRRWLTEQRAQCPHCRAPLQLRELVNCRWAEEVTQQLDTLQLCSLTKHEENEKDKCENHHEKLSVFCWTCKKCICHQCALWGGMHGGHTFKPLAEIYEQHVTKVNEEVAKLRRRLMELISLVQEVERNVEAVRNAKDERVREIRNAVEMMIARLDTQLKNKLITLMGQKTSLTQETELLESLLQEVEHQLRSCSKSELISKSSEILMMFQQVHRKPMASFVTTPVPPDFTSELVPSYDSATFVLENFSTLRQRADPVYSPPLQVSGLCWRLKVYPDGNGVVRGYYLSVFLELSAGLPETSKYEYRVEMVHQSCNDPTKNIIREFASDFEVGECWGYNRFFRLDLLANEGYLNPQNDTVILRFQVRSPTFFQKSRDQHWYITQLEAAQTSYIQQINNLKERLTIELSRTQKSRDLSPPDNHLSPQNDDALETRAKKSACSDMLLEGGPTTASVREAKEDEEDEEKIQNEDYHHELSDGDLDLDLVYEDEVNQLDGSSSSASSTATSNTEENDIDEETMSGENDVEYNNMELEEGELMEDAAAAGPAGSSHGYVGSSSRISRRTHLCSAATSSLLDIDPLILIHLLDLKDRSSIENLWGLQPRPPASLLQPTASYSRKDKDQRKQQAMWRVPSDLKMLKRLKTQMAEVRCMKTDVKNTLSEIKSSSAASGDMQTSLFSADQAALAACGTENSGRLQDLGMELLAKSSVANCYIRNSTNKKSNSPKPARSSVAGSLSLRRAVDPGENSRSKGDCQTLSEGSPGSSQSGSRHSSPRALIHGSIGDILPKTEDRQCKALDSDAVVVAVFSGLPAVEKRRKMVTLGANAKGGHLEGLQMTDLENNSETGELQPVLPEGASAAPEEGMSSDSDIECDTENEEQEEHTSVGGFHDSFMVMTQPPDEDTHSSFPDGEQIGPEDLSFNTDENSGR | 
